What all share (assay): cell-based or functional assay
The target in one test is T1, human GIP receptor (human, UniProt P48546 22-466).
T1 sequence (looked up): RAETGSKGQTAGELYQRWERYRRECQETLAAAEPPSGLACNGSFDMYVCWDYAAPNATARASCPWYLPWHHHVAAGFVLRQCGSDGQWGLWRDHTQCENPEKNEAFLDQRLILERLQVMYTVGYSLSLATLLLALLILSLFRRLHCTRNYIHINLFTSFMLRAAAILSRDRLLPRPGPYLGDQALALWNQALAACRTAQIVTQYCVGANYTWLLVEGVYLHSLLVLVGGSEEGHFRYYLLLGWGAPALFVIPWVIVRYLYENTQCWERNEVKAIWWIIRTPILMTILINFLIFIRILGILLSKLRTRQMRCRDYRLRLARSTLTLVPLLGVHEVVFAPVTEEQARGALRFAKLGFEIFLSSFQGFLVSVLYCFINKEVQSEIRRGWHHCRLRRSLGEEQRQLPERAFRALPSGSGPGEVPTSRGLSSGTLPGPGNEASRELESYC

The target of test [1] is T2, human neuropeptide Y2 receptor (human, UniProt P49146 1-381).
T2 sequence (looked up): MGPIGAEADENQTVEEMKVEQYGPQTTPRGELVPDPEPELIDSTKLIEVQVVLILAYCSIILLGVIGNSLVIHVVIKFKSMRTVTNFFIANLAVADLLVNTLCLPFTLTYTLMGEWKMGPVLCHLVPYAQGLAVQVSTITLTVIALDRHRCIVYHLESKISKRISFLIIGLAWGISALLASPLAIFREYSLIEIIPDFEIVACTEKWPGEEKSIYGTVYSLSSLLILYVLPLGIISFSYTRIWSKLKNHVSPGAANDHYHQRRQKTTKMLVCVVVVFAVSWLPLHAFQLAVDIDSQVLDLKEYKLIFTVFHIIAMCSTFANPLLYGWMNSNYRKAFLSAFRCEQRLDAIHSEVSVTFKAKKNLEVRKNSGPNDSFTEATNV

In the next test the target is human GLP-1 receptor (human, UniProt P43220 24-463).

Data on nine molecules can be found in patent publication US20240247080A1, “GLP1/GIP/NPY2 RECEPTOR TRIPLE AGONISTS” (Boehringer Ingelheim International GmbH, priority 2022, published 2024).

Starred links: 1 amine or outer side, 2 acyl side, 3 side chain; linkers in the order of their positions; H or OH if unused. Non-standard residues stand in square brackets, D forms with d. Groups on a side chain read outwards from the residue. No end group written: not given here. *: point of attachment. C18 diacid = O=C(O)CCCCCCCCCCCCCCCCC(=O)*; γGlu = O=C(O)[C@H](CCC(=O)[*:2])N[*:1]; εLys = N[C@@H](CCCCN[*:1])C(=O)[*:2]; AEEA = NCCOCCOCC(=O)O; Aib = CC(C)(N)C(=O)O; Ahx = NCCCCCC(=O)O

B1: Compound 135 (peptide)
peptide: YXEGTFTSDYSIXLEKQAQXAFVEYLIKGGPSSGASLRHYYNWLTRQRY
modifications: Aib at 2, 13, 20; K28 side chain: C20DA-gGlu-gGlu-gGlu-gGlu-gGlu-gGlu-eLys; C-terminal NH2
For B1, in the test with human GIP receptor, the “EC50 CreLuc hGIPR 0.5% hP” value stood at 0.11 nM and the “EC50 CreLuc hGIPR 100% hP” value amounted to 1.07 nM. Further, in test [1], the “EC50 CreLuc hNPY2R 0.5% hP” value worked out at 8.4 nM and the “EC50 CreLuc hNPY2R 100% hP” value came out at 21.5 nM. Further, in the test with human GLP-1 receptor, the “EC50 CreLuc hGLP1R 0.5% hP” value was determined as 0.24 nM and the “EC50 CreLuc hGLP1R 100% hP” value amounted to 2.3 nM.

B2: Compound 141 (peptide)
peptide: YXEGTFTSDYSIXLEKQAQXEFVQWLIKGGPSEGASLRHYYNWLTRQRY
modifications: Aib at 2, 13, 20; K28 side chain: C18DA-gGlu-gGlu-gGlu-gGlu-gGlu; C-terminal NH2
For the molecule B2, in the test with human GIP receptor, the “EC50 CreLuc hGIPR 0.5% hP” value stood at 0.4 nM and the “EC50 CreLuc hGIPR 100% hP” value worked out at 1.32 nM. Moreover, in test [1], the “EC50 CreLuc hNPY2R 0.5% hP” value was found to be 11.8 nM and the “EC50 CreLuc hNPY2R 100% hP” value came out at 35.2 nM. In the test with human GLP-1 receptor, the “EC50 CreLuc hGLP1R 0.5% hP” value was 0.25 nM and the “EC50 CreLuc hGLP1R 100% hP” value was 7.93 nM.

B3: Compound 130 (peptide)
peptide: YXEGTFTSDYSIXLEKQAQXAFIEWLIKGGPSSGASLRHYYNWLTRQRY
modifications: Aib at 2, 13, 20; K28 side chain: C20DA-gGlu-gGlu-gGlu-Glu-gGlu-gGlu-eLys; C-terminal NH2
As for B3, in the test with human GIP receptor, the “EC50 CreLuc hGIPR 0.5% hP” value is 0.11 nM and the “EC50 CreLuc hGIPR 100% hP” value stood at 0.98 nM. In test [1], the “EC50 CreLuc hNPY2R 0.5% hP” value was determined as 18 nM and the “EC50 CreLuc hNPY2R 100% hP” value was found to be 54.8 nM. In addition, in the test with human GLP-1 receptor, the “EC50 CreLuc hGLP1R 0.5% hP” value came to 0.13 nM and the “EC50 CreLuc hGLP1R 100% hP” value came out at 1.18 nM.

With Y[Aib]EGTFTSDYSI[Aib]LEKQAQ[Aib]AFVQWLIK([Ahx-γGlu-γGlu-γGlu-γGlu-γGlu-γGlu-C18 diacid])GGPSSGASLRHYYNWLTRQRY-NH2 [Compound 139], in the test with human GIP receptor, the “EC50 CreLuc hGIPR 0.5% hP” value was found to be 0.22 nM and the “EC50 CreLuc hGIPR 100% hP” value amounted to 1.04 nM. Besides, in test [1], the “EC50 CreLuc hNPY2R 0.5% hP” value is 18.3 nM and the “EC50 CreLuc hNPY2R 100% hP” value was 43.2 nM. For the same molecule, in the test with human GLP-1 receptor, the “EC50 CreLuc hGLP1R 0.5% hP” value was 0.07 nM and the “EC50 CreLuc hGLP1R 100% hP” value was 1.62 nM.

Take Y[Aib]EGTFTSDYSI[Aib]LEKQAQ[Aib]AFVQWLIK([AEEA-AEEA-γGlu-γGlu-γGlu-C18 diacid])GGPEEGASLRHYYNWLTRQRY-NH2 [Compound 144]: in the test with human GIP receptor, the “EC50 CreLuc hGIPR 0.5% hP” value is 1.15 nM and the “EC50 CreLuc hGIPR 100% hP” value came out at 0.79 nM. Besides, in test [1], the “EC50 CreLuc hNPY2R 0.5% hP” value came out at 15.8 nM and the “EC50 CreLuc hNPY2R 100% hP” value stood at 48.7 nM. In the test with human GLP-1 receptor, the “EC50 CreLuc hGLP1R 0.5% hP” value came out at 0.16 nM and the “EC50 CreLuc hGLP1R 100% hP” value amounted to 5.59 nM.

Y[Aib]EGTFTSDYSI[Aib]LEKQAQ[Aib]EFVEWLIK([AEEA-AEEA-γGlu-γGlu-γGlu-γGlu-C18 diacid])GGPSSGASLRHYYNWLTRQRY-NH2 [Compound 145]: in the test with human GIP receptor, the “EC50 CreLuc hGIPR 0.5% hP” value was found to be 0.28 nM and the “EC50 CreLuc hGIPR 100% hP” value came to 1.23 nM. Also, in test [1], the “EC50 CreLuc hNPY2R 0.5% hP” value was found to be 11.9 nM and the “EC50 CreLuc hNPY2R 100% hP” value amounted to 31.8 nM. In addition, in the test with human GLP-1 receptor, the “EC50 CreLuc hGLP1R 0.5% hP” value came to 0.31 nM and the “EC50 CreLuc hGLP1R 100% hP” value came out at 7.29 nM.

As to Y[Aib]EGTFTSDYSI[Aib]LEKQAQ[Aib]AFVQWLIK([εLys-γGlu-γGlu-γGlu-γGlu-γGlu-C18 diacid])GGPEEGASLRHYYNWLTRQRY-NH2 [Compound 143], in the test with human GIP receptor, the “EC50 CreLuc hGIPR 0.5% hP” value was determined as 0.22 nM and the “EC50 CreLuc hGIPR 100% hP” value was 0.67 nM. In test [1], the “EC50 CreLuc hNPY2R 0.5% hP” value is 13.1 nM and the “EC50 CreLuc hNPY2R 100% hP” value was found to be 42.2 nM. Also, in the test with human GLP-1 receptor, the “EC50 CreLuc hGLP1R 0.5% hP” value came out at 0.13 nM and the “EC50 CreLuc hGLP1R 100% hP” value was 4.24 nM.

As for Y[Aib]EGTFTSDYSI[Aib]LEKQAE[Aib]AFVQWLIK([εLys-γGlu-γGlu-γGlu-γGlu-γGlu-C18 diacid])GGPSEGASLRHYYNWLTRQRY-NH2 [Compound 138], in the test with human GIP receptor, the “EC50 CreLuc hGIPR 0.5% hP” value is 0.13 nM and the “EC50 CreLuc hGIPR 100% hP” value worked out at 0.81 nM. In test [1], the “EC50 CreLuc hNPY2R 0.5% hP” value stood at 18.3 nM and the “EC50 CreLuc hNPY2R 100% hP” value came out at 28.4 nM. Moreover, in the test with human GLP-1 receptor, the “EC50 CreLuc hGLP1R 0.5% hP” value worked out at 0.19 nM and the “EC50 CreLuc hGLP1R 100% hP” value was 5.09 nM.

For Y[Aib]EGTFTSDYSI[Aib]LEKQAQ[Aib]AFVQWLIK([AEEA-AEEA-γGlu-γGlu-γGlu-γGlu-C18 diacid])GGPEEGASLRHYYNWLTRQRY-NH2 [Compound 146], in the test with human GIP receptor, the “EC50 CreLuc hGIPR 0.5% hP” value worked out at 0.77 nM and the “EC50 CreLuc hGIPR 100% hP” value is 0.73 nM. Also, in test [1], the “EC50 CreLuc hNPY2R 0.5% hP” value amounted to 14 nM and the “EC50 CreLuc hNPY2R 100% hP” value is 38.8 nM. Besides, in the test with human GLP-1 receptor, the “EC50 CreLuc hGLP1R 0.5% hP” value was 0.14 nM and the “EC50 CreLuc hGLP1R 100% hP” value amounted to 4.27 nM.
